The results in this text go back to patent US20250376539A1 (KIRA PHARMACEUTICALS SUZHOU, published 2025).

Values joined by “and” are separate entries in the source; they are usually repeats but may differ in a detail not shown here. Equal values may be shown once.

The target in assay [1] is T1, recombinant cynomolgus (cyno) complement C2 (XP_005553508.1), C-terminal 6His-tag, made in house (CHO cell … (cynomolgus monkey (Macaca fascicularis), UniProt P06681 21-752 (human entry))).
T1 construct: also called cyno C2; Cyno C2
T1 chain: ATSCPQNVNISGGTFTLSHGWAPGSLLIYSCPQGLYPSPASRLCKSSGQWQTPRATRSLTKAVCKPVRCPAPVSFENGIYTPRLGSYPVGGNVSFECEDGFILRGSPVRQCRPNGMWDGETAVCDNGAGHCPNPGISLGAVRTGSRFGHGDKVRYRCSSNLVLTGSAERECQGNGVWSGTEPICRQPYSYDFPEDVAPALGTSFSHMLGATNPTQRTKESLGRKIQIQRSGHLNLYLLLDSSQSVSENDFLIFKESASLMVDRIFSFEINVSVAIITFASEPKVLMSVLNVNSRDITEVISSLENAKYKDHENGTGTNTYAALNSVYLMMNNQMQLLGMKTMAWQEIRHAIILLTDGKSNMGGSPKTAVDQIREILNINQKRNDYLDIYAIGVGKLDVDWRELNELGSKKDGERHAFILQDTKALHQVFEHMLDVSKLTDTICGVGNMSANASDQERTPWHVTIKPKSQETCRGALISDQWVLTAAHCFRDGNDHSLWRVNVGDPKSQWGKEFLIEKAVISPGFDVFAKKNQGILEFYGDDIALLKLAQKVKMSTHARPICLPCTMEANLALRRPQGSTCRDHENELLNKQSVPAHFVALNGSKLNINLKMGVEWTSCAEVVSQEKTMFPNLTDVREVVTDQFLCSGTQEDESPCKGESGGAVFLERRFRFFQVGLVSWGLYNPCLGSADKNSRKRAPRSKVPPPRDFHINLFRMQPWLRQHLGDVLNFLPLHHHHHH
Put plainly: ELISA. On the technique in general: ELISA stands for enzyme-linked immunosorbent assay.

The target of assay [2] is T2, recombinant human complement C2 (NP_000054.2), C-terminal 6His-tag, made in house (CHO cell expression) (human, UniProt P06681 21-752).
T2 construct: a linker before the tag is not described; also called human C2; Human C2
T2 sequence: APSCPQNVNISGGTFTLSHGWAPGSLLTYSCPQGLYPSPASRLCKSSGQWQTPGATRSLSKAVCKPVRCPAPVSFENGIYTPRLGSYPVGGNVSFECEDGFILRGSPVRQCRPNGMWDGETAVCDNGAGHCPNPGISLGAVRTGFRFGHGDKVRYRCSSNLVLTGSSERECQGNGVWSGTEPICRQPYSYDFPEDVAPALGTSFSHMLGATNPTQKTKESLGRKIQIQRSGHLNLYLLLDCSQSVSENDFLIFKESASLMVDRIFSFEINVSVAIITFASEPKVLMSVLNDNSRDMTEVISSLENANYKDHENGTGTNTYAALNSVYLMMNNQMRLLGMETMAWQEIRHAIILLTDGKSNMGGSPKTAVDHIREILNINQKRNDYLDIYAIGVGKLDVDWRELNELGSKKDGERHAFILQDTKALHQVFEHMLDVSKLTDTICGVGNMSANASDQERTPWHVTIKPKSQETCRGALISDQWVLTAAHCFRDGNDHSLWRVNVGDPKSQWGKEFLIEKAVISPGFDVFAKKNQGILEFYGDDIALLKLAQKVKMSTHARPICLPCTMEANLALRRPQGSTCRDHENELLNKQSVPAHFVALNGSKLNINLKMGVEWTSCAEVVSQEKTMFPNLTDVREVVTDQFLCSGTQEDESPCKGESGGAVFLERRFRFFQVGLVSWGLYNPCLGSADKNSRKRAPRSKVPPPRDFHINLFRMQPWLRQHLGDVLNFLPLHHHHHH
Put plainly: ELISA.

For assay [3], the target named is T2, recombinant human complement C2 …. Kind of assay: binding kinetics, neutral pH (BLI presumed).
Assay [4] deals with T1, recombinant cynomolgus (cyno) …. Kind of assay: binding kinetics (BLI presumed).
The target is the same in assay [5]. Put plainly: BLI (Gator); ratio of dissociation at pH 5.8 to pH 7.4. Here is the method:
(§1) The histidine mutant constructs in Table 4 were tested for their pH-dependent dissociation from human C2. Probe-immobilized anti-C2 antibodies were incubated with C2 at pH 7.4 for 600s, followed by a 600s dissociation period in K Buffer at pH 7.4 or pH 5.8. The data were processed and analyzed by the Gator evaluation software.
Non-fusion mAb were used for comparison.

The target in assay [6] is T3, recombinant cyno C2a, C-terminal 6His-tag, made in house (CHO cell expression) (cynomolgus monkey, UniProt P06681 244-752 (human entry)).
T3 chain: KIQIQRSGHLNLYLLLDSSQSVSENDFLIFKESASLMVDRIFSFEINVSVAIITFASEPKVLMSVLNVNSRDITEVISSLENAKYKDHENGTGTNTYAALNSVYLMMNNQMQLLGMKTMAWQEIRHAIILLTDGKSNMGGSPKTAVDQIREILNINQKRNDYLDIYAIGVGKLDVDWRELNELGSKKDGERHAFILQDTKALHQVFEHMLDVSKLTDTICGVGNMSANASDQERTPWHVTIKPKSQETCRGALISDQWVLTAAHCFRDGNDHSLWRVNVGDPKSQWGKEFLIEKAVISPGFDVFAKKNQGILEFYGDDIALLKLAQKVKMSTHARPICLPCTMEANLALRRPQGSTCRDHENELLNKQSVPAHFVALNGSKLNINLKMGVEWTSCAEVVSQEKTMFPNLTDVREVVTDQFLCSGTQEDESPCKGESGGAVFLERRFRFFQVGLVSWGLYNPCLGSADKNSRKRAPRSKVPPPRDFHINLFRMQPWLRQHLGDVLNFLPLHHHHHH
Kind of assay: ELISA on cyno C2a, OD450nm against log Ab conc. (nmol/L).

Assay [7] concerns the target T2, recombinant human complement C2 …. Put plainly: BLI (Gator), antibody on probe; 600 s association at pH 7.4, 600 s dissociation at pH 7.4. As to the method:
as §1

B1: anti-C2 antibody 69.44 (antibody, IgG4, V domains shown)
VH: QVQLVQSGAEVKKPGASVKVSCKASGYSFTTYYMYWVRQAPGQGLEWMGIITPSGGSTTYAQKFQDRVTMTRDASTTTVYMELSSLRSEDTAVYYCARGYEGSYGFDHWGQGTLVTVSS
VL: SYELTQPPSVSLSPGQTASITCSGDKLGNKYTCWYQQKPGQSPVLVIYQDNKRPSGIPERFSGSNSGNTATLTISGTQAMDEADYYCQTWDSSTAVFGGGTKLTVL
notes: Recombinant
What is called EC50 is the midpoint of the concentration-response curve. In general, Kd refers to a measure of binding affinity in units of concentration. As usually defined, the koff is the first-order rate constant of dissociation. In general, kon refers to the second-order rate constant of association. For the molecule B1, the EC50 in assay [1] came out at 0.0794 nM. Besides, the EC50 in assay [2] worked out at 0.0474 nM. Also, in assay [3], the Kd is 0.296 nM, the koff turned out to be 5.85e-05 s⁻¹ and the kon turned out to be 197000 M⁻¹ s⁻¹. In assay [4], the dissociation constant (Kd) amounted to 0.304 nM, the koff was 5.89e-05 s⁻¹ and the association rate constant (kon) is 194000 M⁻¹ s⁻¹. In addition, the “Fold dissociation pH 5.8/pH 7.4” value in assay [5] amounted to 1.5 fold.

B2: anti-C2 antibody 3.2 (antibody, IgG4, V domains shown)
VH: EVQLLESGGGLVQPGGSLRLSCAASGFTFRHYAMSWVRQAPGKGLEWVSLISGSGASTFYADSVKGRFTISRDNSENMLYLQMNSLRAEDTAVYYCAKDSLAVAGSEYFQHWGQGTLVTVSS
VL: SYVLTQAPSVSVAPGQTARITCGGNYFGGKSVHWYQQRPGQAPVLVVYDDSDRPSGIPERFSGSKSGNTATLAISRVEAGDEAAYYCQVYDTSSDHWVFGGGTKLTVL
notes: Recombinant; also called WT; "WT" 3.2
On to B2, for which the values for the EC50 in assay [1] and in assay [2] were 0.0478 nM and 0.0504 nM, respectively. The binding result in assay [6] is on record as “no binding (tested: 100 nmol/L)”. Besides, the Kd is 0.198 nM and 0.0984 nM in assay [3]; 0.126 nM in assay [4]. Also, the koff in assay [3] is 6.12e-05 s⁻¹ and 3.73e-05 s⁻¹; in assay [4] it was 5.82e-05 s⁻¹. In addition, the kon is 308000 M⁻¹ s⁻¹ and 379000 M⁻¹ s⁻¹ in assay [3]; 461000 M⁻¹ s⁻¹ in assay [4]. Also, the “Fold dissociation pH 5.8/pH 7.4” value in assay [5] was 2.7 fold. The “Dissociation (%) pH 7.4” value in assay [7] came to 3.59%.
